Laboratory results from patent US5237051A (Vanderbilt University, priority 1990, dated 1993).

Molecular target: T1, GC-C (Rattus norvegicus, UniProt P23897)
T1 construct: expressed in transfected cells; host or cells: COS-7
T1 sequence (P23897 23-1072): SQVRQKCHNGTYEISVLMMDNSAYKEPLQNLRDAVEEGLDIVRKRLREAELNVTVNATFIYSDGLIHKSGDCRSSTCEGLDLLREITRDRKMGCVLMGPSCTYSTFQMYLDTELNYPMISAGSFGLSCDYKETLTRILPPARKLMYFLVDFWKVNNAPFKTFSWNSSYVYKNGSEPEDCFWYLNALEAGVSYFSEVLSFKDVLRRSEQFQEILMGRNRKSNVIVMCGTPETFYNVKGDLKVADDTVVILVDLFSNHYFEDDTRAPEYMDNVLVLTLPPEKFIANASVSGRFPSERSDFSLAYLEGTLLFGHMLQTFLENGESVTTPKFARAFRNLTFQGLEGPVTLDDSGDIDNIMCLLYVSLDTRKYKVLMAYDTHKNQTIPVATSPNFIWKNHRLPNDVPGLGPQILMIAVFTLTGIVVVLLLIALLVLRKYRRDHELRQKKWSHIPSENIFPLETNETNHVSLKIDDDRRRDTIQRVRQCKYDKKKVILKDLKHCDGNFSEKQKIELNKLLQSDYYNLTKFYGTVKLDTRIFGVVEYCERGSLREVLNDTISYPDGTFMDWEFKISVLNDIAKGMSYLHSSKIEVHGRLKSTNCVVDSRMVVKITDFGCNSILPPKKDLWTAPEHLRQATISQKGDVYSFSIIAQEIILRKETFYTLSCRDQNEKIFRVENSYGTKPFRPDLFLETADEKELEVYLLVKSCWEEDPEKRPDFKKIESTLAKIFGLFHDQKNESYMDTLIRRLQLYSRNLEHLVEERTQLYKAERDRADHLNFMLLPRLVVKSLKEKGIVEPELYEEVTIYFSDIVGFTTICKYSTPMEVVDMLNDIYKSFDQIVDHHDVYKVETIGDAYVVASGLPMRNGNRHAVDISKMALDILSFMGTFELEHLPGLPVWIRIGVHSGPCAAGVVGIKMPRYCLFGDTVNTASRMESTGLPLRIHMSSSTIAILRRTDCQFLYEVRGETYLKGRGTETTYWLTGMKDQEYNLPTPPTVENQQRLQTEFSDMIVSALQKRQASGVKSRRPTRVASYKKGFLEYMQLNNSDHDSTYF
Type: cell-based

C-type natriuretic peptide
cyclic GMP levels after stimulation of transfected cells (in words): did not increase cyclic GMP levels above background | stimulation of GC-C (in words): failed to stimulate

atrial natriuretic peptide
cyclic GMP levels after stimulation of transfected cells (in words): did not increase cyclic GMP levels above background | stimulation of GC-C (in words): failed to stimulate

brain natriuretic peptide
cyclic GMP levels after stimulation of transfected cells (in words): did not increase cyclic GMP levels above background | stimulation of GC-C (in words): failed to stimulate
